Residue numbers refer to the chain shown, from its start.

In assay [1] the target is T1, human IL6 (human, UniProt P05231 30-212). Kind of assay: cell-based or functional assay.
Assay [2] deals with human VEGF-A (isoform not given) (human, UniProt P15692-4 27-191, limits assumed). Kind of assay: cell-based or functional assay.
Assay [3] has as its target T1, human IL6. The assay is described as follows: SPR, Fab captured on anti-Fab chip, human IL6 as analyte. How it is done:
(§1) A Human Fab Binder (28958325, Cytiva) was diluted at a final concentration of 10 μg/ml in 10 mM sodium acetate buffer, pH 5.0 and immobilized on a CM5 sensor chip using standard amine coupling chemistry. […] The reference channel was treated accordingly.
(§2) Prior to the protein measurements five startup cycles were performed for conditioning purposes. On each cycle, HBS-EP+ buffer was flowed for 120 s followed by the regeneration of the derivatized chip surface by applying 10 mM Glycine buffer pH2.0 for 60 s. Fab fragment at a concentration of 75 nM was captured on this surface for 60 s at a flow rate of 10 μl/min in HBS-EP+ buffer. No Fab fragment was applied to the reference channel. […] Regeneration of the derivatized chip surface was achieved as described above. Data were evaluated with 8K Evaluation software (Biacore Insight Evaluation 3.0). Double referencing was used and the 1:1 Binding model was used to fit the raw data.

For assay [4], the target named is T2, cynomolgus monkey IL6 (cynomolgus monkey, UniProt P79341 28-212, limits assumed).
T2 construct: also called cynomolgus IL6; cyIL-6
T2 sequence (looked up): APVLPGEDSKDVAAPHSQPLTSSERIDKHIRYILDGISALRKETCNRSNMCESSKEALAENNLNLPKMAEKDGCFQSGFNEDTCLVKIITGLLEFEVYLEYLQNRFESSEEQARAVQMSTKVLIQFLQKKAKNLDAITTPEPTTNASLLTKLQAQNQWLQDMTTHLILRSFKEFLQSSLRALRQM
The assay is described as follows: SPR, Fab captured on anti-Fab chip, cynomolgus IL6 as analyte. On the procedure:
as §1, §2
(In SPR one partner is held on a chip, and binding of the other changes the refractive index at the surface.)

Assay [5] concerns the target T3, human VEGF121 (human, UniProt P15692 181-395).
T3 construct: The limits of the proteins used (Humanzyme HZ-1206); also called human VEGFA121
T3 sequence: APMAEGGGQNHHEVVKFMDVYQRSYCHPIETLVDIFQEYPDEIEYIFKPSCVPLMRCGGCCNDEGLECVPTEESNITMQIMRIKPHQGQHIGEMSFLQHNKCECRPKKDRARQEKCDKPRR
Kind of assay: competition ELISA: Fab titrated against 10 pM VEGF121, free VEGF detected on plate-coated VEGF-R1. How it is done: (§3) The contact time between the Fab-Antigen mixture and the receptor-coated plate was restricted to 10 min at RT in order to minimize interference with the binding equilibria. […] The latter is detected exploiting the chromogenic conversion of the HRP substrate 3,3′,5,5′-tetramethylbenzidine TMB to 3,3′,5,5′-tetramethylbenzidine […], which can be followed by a change in absorbance at 450 nm. TMB was prewarmed to room temperature and incubated on the plate for 5 min before being quenched by the addition of IN H₂SO₄.
For orientation: ELISA stands for enzyme-linked immunosorbent assay.

The target of assay [6] is human VEGF165 (human, UniProt P15692-4 27-191). The assay is described as follows: competition ELISA: Fab titrated against 10 pM VEGF165, free VEGF detected on plate-coated VEGF-R1. On the procedure:
as §3

Assay [7] concerns the target T1, human IL6. Kind of assay: SPR in analogy to Example 3, Fab captured on anti-Fab chip. On the procedure: as §1, §2
The target in assay [8] is T2, cynomolgus monkey IL6. The assay is described as above. How it is done:
as §1, §2

B1: 6HVL_4 (Fab, V domains shown)
VH: YPQLVESGGGLVQPGGSLRLSCEASVLFKHQDMSWVRQAPGKGLEWVGSIDPRGDHKYYNTKFIDRFTISRDNSKNTLYLQMNSLRAEDTAVYYCARDLDFMDEWGQGTLVTVSS
VL: AIYMHQEPSSLSASVGDRVTITCQASYWLNSELAWYQQKPGKAPKLLIYDGDDRYPEVPSRFSGSGSHEDYTLTISSLQPEDFATYYCQQYRYTPYTFGQGTKLEIKR
notes: Bispecific Fab; also called VEGF/IL6-bispecific antibody 6HVL_4
For B1, the “IC50, inhibition of IL-6/IL-6R-induced ICAM-1 surface expression on HRMECs (flow cytometry)” value in assay [1] worked out at 1.52 nM. In addition, the “IC50, inhibition of VEGF-A-induced HUVEC proliferation (alamarBlue)” value in assay [2] was found to be 2.06 nM. Further, the Kd came to 0.069 nM in assay [3] and 1.48 nM in assay [4]. The IC50 in assay [5] stood at 0.458 nM; in assay [6], 0.111 nM.

B2: 6HdL2.05 (Fab, V domains shown)
VH: B1 VH with D51S, R53S, D55G, H56S, K57T, T61D, K62N, F63V, I64L, D65G
VL: DIQMTQSPSSLSASVGDRVTITCRASQGISNYLAWYQQKPGKAPKLLIYDGDDRYPEVPSRFSGSGSGTDFTLTISSLQPEDFATYYCQQYYSTPYTFGQGTKLEIKR
notes: also called monospecific anti-IL6 antibody 6HdL2.05
B2: the Kd in assay [7] was 0.022 nM; in assay [8] it was 1.3 nM.

B3: 6HVL_4_YHE (Fab, V domains shown)
VH: B1 VH
VL: B1 VL with Y3Q, H5T, E7S
With B3, the values for the Kd in assay [3] and in assay [4] were 0.065 nM and 1.39 nM, respectively. Further, the IC50 in assay [5] stood at 0.528 nM; in assay [6], 0.135 nM.

B4: VH6L-BM (Fab, V domains shown)
VH: YYQLVESGGGLVQPGGSLRLSCAADGFLFSGYAMSWIRQAPGKGLEWIGQISGSGGSTVYNYNVLGRFTISRDNSKNTLYLQMNSLRAEDTAVYYCARDTGYFDHWGQGTLVTVSS
VL: NIQKTQSPSSLSASVGDRVTITCRALWHISSYLAWYQQKPGKAPKLLIYAASHLHYGVPSRFSGSGSGTDFTLTISSLQPEDFATYYCQQYSGLPYTFGQGTKVEIK
notes: Prior art control, prepared by recombinant expression; also called bispecific antibody VH6L of WO2012/163520
As for B4, the Kd in assay [3] turned out to be 3.5 nM.

Usually Kd stands for the equilibrium constant for the complex coming apart. In general, IC50 refers to the point on the concentration scale where inhibition reaches its midpoint.

Values taken from patent publication US20250163139A1 (Hoffmann-La Roche, published 2025).
